Source: the DeepSol protein solubility set

Assay: soluble on expression in E. coli; label from the status in PepcDB or PDB records

| Sequence | soluble on expression in E. coli |
| --- | --- |
| SEMIGGDDTDTEMYGALVTAQSLRLRHLHHCRENQCTSVLVKYIQAPVHLVWSLVRRFDQPQKYKPFISRCTVNGDPEIGCLREVNVKSGLPATTSTERLEQLDDEEHILGINIIGGDHRLKNYSSILTVHPEMIDGRSGTMVMESFVVDVPQGNTKDDTCYFVESLIKCNLKSLACVSERLAAQDITNSIATFCNASNGYREKNHTETNL | soluble |
| SERGDQPKRTRNENIFNCLYKNPEATFKLICFPWMGGGSTHFAKWGQDTHDLLEVHSLRLPGRESRVEEPLENDISQLVDEVVCALQPVIQDKPFAFFGHSMGSYIAFRTALGLKENNQPEPLHLFLSSATPVHSKAWHRIPKDDELSEEQISHYLMEFGGTPKHFAEAKEFVKQCSPIIRADLNIVRSCTSNVPSKAVLSCDLTCFVGSEDIAKDMEAWKDVTSGNAKIYQLPGGHFYLLDPANEKLIKNYIIKCLEVSSISNF | soluble |
| SETQSFVVSVAGSDRVGIVHDFSWALKNISANVESSRMACLGGDFAMIVLVSLNAKDGKLIQSALESALPGFQISTRRASSVAERHVSPDTREYELYVEGPDSEGIVEAVTAVLAKKGANIVELETETLPAPFAGFTLFRMGSRVAFPFPLYQEVVTALSRVEEEFGVDIDLEEVVEGEDSEEDDDSPNSPVGRH | soluble |
| SETRSPGLNNMKPQSLQLVLEEQVLALQQQMAENQAASWRKLKNSQEAQQRQATLVRKLQAKVLQYRSWCQELEKRLEATGGPIPQRWENVEEPNLDELLVRLEEEQQRCESLAEVNTQLRLHMEKADVVNKALREDVEKLTVDWK | soluble |
| SFARGLKRKCVGHEEDVEGALAGLKTVSSYSLQRQSLLDMSLVKLQLCHMLVEPNLCRSVLIANTVRQIQEEMTQDGTWRTVAPQAAERAPLDRLVSTEILCRAAWGQEGAHPAPGLGDGHTQGPVSDLCPVTSAQAPRHLQSSAWEMDGPRENRGSFHKSLDQIFETLETKNPSCMEELFSDVDSPYYDLDTVLTGMMGGARPGPCEGLEGLAPATPGPSSSCKSDLGELDHVVEILVET | not soluble |
| SFDRALKPFLQSCHLRMLTDPVDQCVAYHLGRVRESLPELQIEIIADYEVHPNRRPKILAQTAAHVAGAAYYYQRQDVEADPWGNQRISGVCIHPRFGGWFAIRGVVLLPGIEVPDLPPRKPHDCVPTRADRIALLEGFNFHWRDWTYRDAVTPQERYSEEQKAYFSTPPAQRLALLGLAQPSEKPSSPSPDLPFTTPAPKKPGNPSRARSWLSPRVSPPASPGP | soluble |
| SFSSLPLTGENPGAWALVRDNSAKGITAGSGSQQTTYDPTRTEAALTASTTFALRRYDLAGRALYDLDFSKLNPQTPTRDQTGQITFNPFGGFGLSGAAPQQWNEVKNKVPVEVAQDPSNPYRFAVLLVPRSVVYYEQLQRGLGLPQQRTESGQNTSTTGAMFGLKVKNAEADTAKSNEKLQGAEATGSSTTSGSGQSTQRGGSSGDTKVKALKIEVKKKSDSEDNGQLQLEKNDLANAPIKRSEESGQSVQLKADDFGTALSSSGSGGNSNPGSPTPWRPW | soluble |
| SGARRMETDYNPVELSSMSGFEEGSELNGFEGADMKDMQLEAEAVVNDVLFAVNHMFVSKSMPCADDVAYINVETKERNRYCLELTEAGLRVVGYAFDQVEDHLQTPYHETVYSLLDTLSPAYREAFGNALLQRLEALKRDGQS | soluble |
| SGGAVSAGEDNDELIDNLKEAQYIRTELVEQAFRAIDRADYYLEEFKENAYKDLAWKHGNIHLSAPCIYSEVMEALDLQPGLSFLNLGSGTGYLSSMVGLILGPFGVNHGVELHSDVIEYAKQKLDFFIRTSDSFDKFDFCEPSFVTGNCLEISPDCSQYDRVYCGAGVQKEHEEYMKNLLKVGGILVMPLEEKLTKITRTGPSAWETKKILAVSFAPLIQPCHSESGKSRLVQLRSPSFVQGWSVVVLSQLTAASTFQAEAILPSQSPTWLRLQVLATMPN | not soluble |
| SGGGGGILEKLGDICFSLRYVPTAGKLTVVILEAKNLKKMDVGGLSDPYVKIHLMQNGKRLKKKKTTIKKNTLNPYYNESFSFEVPFEQIQKVQVVVTVLDYDKIGKNDAIGKVFVGYNSTGAELRHWSDMLANPRRPIAQWHTLQVEEEVDAMLAVKK | soluble |
| SGNRGVVYLGSGKVEVQKIDYPKMQDPRGKKIEHGVILKVVSTNICGSDQHMVRGRTTAQVGLVLGHEITGEVIEKGRDVENLQIGDLVSVPFNVACGRCRSCKEMHTGVCLTVNPARAGGAYGYVDMGDWTGGQAEYVLVPYADFNLLKLPDRDKAMEKIRDLTCLSDILPTGYHGAVTAGVGPGSTVYVAGAGPVGLAAAASARLLGAAVVIVGDLNPARLAHAKAQGFEIADLSLDTPLHEQIAALLGEPEVDCAVDAVGFEARGHGHEGAKHEAPATVLNSLMQVTRVAGKIGIPGLYVTEDPGAVDAAAKIGSLSIRFGLGWAKSHSFHTGQTPVMKYNRALMQAIMWDRINIAEVVGVQVISLDDAPRGYGEFDAGVPKKFVIDPHKTFSAA | soluble |
| SGPMDSRALRQGNRLLGNAEGCAALEITMSGPLLRFNTDAVIAVTGAHIPITLDGESCAMNTALLVRAGSTLALGTIAGAGVRSYLCVRGGLDVPDYLGSKSTFTLGQFGGHGGRALRAGDVLHIARLVDRTAGQKIADEQLDALQDVRQIRVIYGPHAAPEYFTESYIETFFATDWEVHFNSSRTGVRLIGPKPEWVRADGGEAGLHPSNIHDNPYAIGAVDFTGDMPVILGPDGPSLGGFVCPVTIIEADLWQLGQLKAGDKVRFYPVSVEACHAAMNSQGPLPQGPLNTSGSGL | not soluble |
| SGRPLEGQPLRALDLYPEPAFLRSGKDPKSSPASSPSFAVLGPEVRSTGGQAGSRRRPSAPCSQDRAAAEGAPALLGGSPSSGSPGHPPGSAFGVEAGCRALNVSEHARGGFALGLPFGLSGGAYLFLLLDGAGDPKPTPEAPISSADGRAWFPSESSWQLPQLPAGSTSGSEPRARPGLGPRQLPTGPRDGAAGQGPGRGLTARLGREREIDCGPRQAGHGGTATDTGRAGSGARHRPPRDRGTPGLRTH | soluble |
| SGRVQLFEISLSHGRVVYSPGEPLAGTVRVRLGAPLPFRAIRVTCIGSCGVSNKANDTAWVVEEGYFNSSLSLADKGSLPAGEHSFPFQFLLPATAPTSFEGPFGKIVHQVRAAIHTPRFSKDHKCSLVFYILSPLNLNSIPDIEQPNVASATKKFSYKLVKTGSVVLTASTDLRGYVVGQALQLHADVENQSGKDTSPVVASLLQKVSYKAKRWIHDVRTIAEVEGAGVKAWRRAQWHEQILVPALPQSALPGCSLIHIDYYLQVSLKAPEATVTLPVFIGNIAVNHAPVSPRPGLGLPPGAPPLVVPSAPPQEEAEAEAAAGGPHFLDPVFLSTKSHSQRQPLLATLSSVPGAPEPCPQDGSPASHPLHPPLCISTGATVPYFAEGSGGPVPTTSTLILPPEYSSWGYPYEAPPSYEQSCGGVEPSLTPES | soluble |
| SGSSTGDLVTRIQSAHRFDHDALFRFAADNVSGFPTNPSQFKVSQFGHGQSNPTFLIEVGSGSSLKRYVLRKKPPGKLLQSAHAVDREFQVLRALGEHTQVPVPKVFCLCTDPAVIGTAFYIMEFMEGRIFIDPKLPNVAPERRNAIYRATAKALASLHSADVDAIGLEKYGRRGNYCKRQIDRWFKQYLASTSEGKPERNPKMFELVDWLRKNIPAEDSTGATSGLVHGDFRIDNLVFHPSEDRVIGIIDWELSTLGNQMCDVAYSCMHYIVNVQLDKEHVSEGFETTGLPEGMLSMPEFLLEYCSASGKPWPAANWKFYVAFSLFRAASIYTGVYSRWLMGNASAGERARNTGVQANELVESALGYIARENVLPEHPPSVQRDVSPSYESLVDGSGRFIPNRKVLELRQKLIKFMETHIYPMENEFSKLAQSDMRWTVHPQEEKLKEMAKREGLWNLFVPVDSAARARRELAATENKHNLSGKSFDQLFGEGLTNLEYGYLCEIMGRSVWAPQVFNCGAPDTGNMEVILRYGNKEQISEWLIPLLEGRIRSGFAMTEPQVASSDATNIECSIRRQGDSYVINGTKWWTSGAMDPRCRVLILMGKTDFNAPKHKQQSMILVDMRTPGISVKRPLTVFGFDDAPHGHAEISFENVVVPAKNILLGEGRGFEIAQGRLGPGRLHHCMRLIGAAERGMELMAQRALSRKTFGKFIAQHGSFVSDLAKLRVELEGTRLLVLEAADHLDKFGNKKARGILAMAKVAAPNMALKVLDTAIQVHGAAGVSSDTVLAHLWATARTLRIADGPDEVHLGTIGKLELQRASKL | soluble |
| SHPDLNKLLELWPHIQEYQDLALKHGINDIFQDNGGKLLQVLLITGLTVLPGREGNDAVDNAGQEYELKSINIDLTKGFSTHHHMNPVIIAKYRQVPWIFAIYRGIAIEAIYRLEPKDLEFYYDKWERKWYSDGHKDINNPKIPVKYVMEHGTKIYGSGGSHPDLNKLLELWPHIQEYQDLALKHGINDIFQDNGGKLLQVLLITGLTVLPGREGNDAVDNAGQEYELKSINIDLTKGFSTHHHMNPVIIAKYRQVPWIFAIYRGIAIEAIYRLEPKDLEFYYDKWERKWYSDGHKDINNPKIPVKYVMEHGTKIYGSHHHHHH | soluble |
| SHSEAEESKEVAADVFNSKNLAVQAQKKILGKMVSKSIATTLIDDTSSEVLDELYRVTREYTQNKKEAEKIIKNLIKTVIKLAILYRNNQFNQDELALMEKFKKKVHQLAMTVVSFHQVDYTFDRNVLSRLLNECREMLHQIIQRHLTAKSHGRVNNVFDHFSDCEFLAALYNPFGNFKPHLQKLCDGINKMLDEENI | soluble |
| SIKNGILYLEDPVNHEWYPHYFVLTSSKIYYSEETSSDQGNEDEEEPKEASGSTELHSSLEVLFQGPNPAILEPEREHLDENSPLGDLLRGVLDVPACQIAIRPEGKNNRLFVFSISMPSVAQWSLDVAADSQEELQDWVKKIREVAQTA | soluble |
| SKELKVLVLCAGSGTSAQLANAINEGANLTEVRVIANSGAYGAHYDIMGVYDLIILAPQVRSYYREMKVDAERLGIQIVATRGMEYIHLTKSPSKALQFVLEHYQ | not soluble |
| SKGKLGEKISQFKIVEELKAKGLYAYFRPIQSKQDTEVKIDGRRVLMFGSNSYLGLTTDTRIIKAAQDALEKYGTGCAGSRFLNGTLDIHVELEEKLSAYVGKEAAILFSTGFQSNLGPLSCLMGRNDYILLDERDHASIIDGSRLSFSKVIKYGHNNMEDLRAKLSRLPEDSAKLICTDGIFSMEGDIVNLPELTSIANEFDAAVMVDDAHSLGVIGHKGAGTASHFGLNDDVDLIMGTFSKSLASLGGFVAGDADVIDFLKHNARSVMFSASMTPASVASTLKALEIIQNEPEHIEKLWKNTDYAKAQLLDHGFDLGATESPILPIFIRSNEKTFWVTKMLQDDGVFVNPVVSPAVPAEESLIRFSLMATHTYDQIDEAIEKMVKVFKQAEVETLI | soluble |
| SKHSNKPYDSFQDELEDYIKVQKARGLEPKTCFRRMRGEYLESCGYREEFDSRPRYRMFDQRLPSGTNHSYPRSCSSSQTEDRVPQWLPAHDKIRLNSLSYCQFTRDGFSEKPVPLNLSQQEYNCGSYSVESVVHKRLCSEHSTIDPQVSHRQMHQKRKKHVEEGREKQEERPKHERKRSSEEMDLNKHRSIQRKKTKAETETVQDGTEKLKNRKEKKTRDVSSKKEDRKRRKEKKEQGEERTEEEMLWDQSILGF | soluble |
| SKVKEGKDLIVGLDIGTSKIVAIVAEMKPEGGFEIIGLGSHLSRGLKKGVVVNIEATVNAIQRALEEVELMAGCRISEVYAGIAGNHIRGFNSHGMVAIKDKEVTQADVEKVMETAKAVNIPADQ | not soluble |
| SLAANMYRVGDYVYFENSSSNPYLIRRIEELNKTASGNVEAKVVCFYRRRDISNTLIMLADKHAKEIEEESETTVEADLTDKQKHQLKHRELFLSRQYESLPATHIRGKCSVALLNETESVLSYLDKEDTFFYSLVYDPSLKTLLADKGEIRVGPRYQADIPEMLLEGESDEREQSKLEVKVWDPNSPLTDRQIDQFLVVARAVGTFARALD | soluble |
